Assay results from patent US20100260769A1 (MORPHOTEK, published 2010).

Columns and labels:
[1] = molecular target: T1, mouse TEM1 extracellular domain (ECD)-Fc fusion protein (mouse, UniProt Q91V98 18-695); assay: hybridoma screening ELISA on TEM1-Fc protein, Fc-reactive clones removed by counterscreen
T1 construct: also called mouse TEM1-Fc
T1 sequence: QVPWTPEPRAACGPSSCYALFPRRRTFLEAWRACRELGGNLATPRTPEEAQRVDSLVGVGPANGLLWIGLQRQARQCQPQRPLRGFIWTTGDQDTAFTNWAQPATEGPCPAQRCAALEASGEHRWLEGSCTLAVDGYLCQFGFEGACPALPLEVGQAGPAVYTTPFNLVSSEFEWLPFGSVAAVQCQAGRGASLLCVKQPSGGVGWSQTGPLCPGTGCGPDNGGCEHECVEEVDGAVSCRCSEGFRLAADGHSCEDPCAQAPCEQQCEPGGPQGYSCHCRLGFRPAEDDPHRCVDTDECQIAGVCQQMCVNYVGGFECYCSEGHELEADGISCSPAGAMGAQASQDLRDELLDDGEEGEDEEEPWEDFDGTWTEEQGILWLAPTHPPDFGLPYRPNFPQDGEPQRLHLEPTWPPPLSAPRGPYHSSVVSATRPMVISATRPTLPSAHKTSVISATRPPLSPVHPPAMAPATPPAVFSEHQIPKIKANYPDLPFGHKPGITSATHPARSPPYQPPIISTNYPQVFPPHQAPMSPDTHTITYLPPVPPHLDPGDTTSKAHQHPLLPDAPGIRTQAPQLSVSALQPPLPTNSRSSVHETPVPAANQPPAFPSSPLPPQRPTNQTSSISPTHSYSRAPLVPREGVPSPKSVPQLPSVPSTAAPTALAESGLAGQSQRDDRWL
Method: To generate rabbit anti-mouse endosialin (TEM1) antibody clone 8, we immunized two New Zealand white rabbits with four injections of mouse TEM1 extracellular domain (ECD)-Fc fusion protein. Antiserum titer was monitored using standard ELISA (TEM1) and counterscreen ELISA for Fc reactivity. A final IV boost was performed within 4-8 weeks of the last regular injection boost. Splenectomies were performed after the final IV boost. Lymphocytes were isolated from each rabbit spleen. Fusions with 240E-W3 cells (Epitomics) were performed in forty 96-well plates. Standard ELISA screening for 40 plates was performed using TEM1-Fc protein. All positive hybridomas were expanded to 24-well plates and confirmatory standard and differential ELISA were performed. Fc reactive clones were counterscreened and removed, leaving the TEM1-reactive clones. Positive hybridomas were expanded for Ig gene sequencing and generation of purified Ab. One positive hybridoma was assigned the designation clone 8.

[2] = molecular target: soluble human endosialin extracellular domain-mouse Fc fusion protein (human; mouse); assay: competition ELISA: hTEM1-Fc (15 µg/mL) preincubated with serial dilutions of antibody, binding to fibronectin-coated plate detected with anti-mouse HRP
[3] = molecular target: T2, full length human TEM1 (endosialin) with a C-terminal V5-His tag, expressed in A431-TEM1 cells / tumor … (human, UniProt Q9HCU0 18-757); assay: IHC on FFPE A431-TEM1 tumor xenograft sections, biotinylated antibody at 20 µg/ml
T2 construct: Target in tissue sections of A431-TEM1 tumor xenografts; also called hTEM1; endosialin/TEM1
T2 sequence: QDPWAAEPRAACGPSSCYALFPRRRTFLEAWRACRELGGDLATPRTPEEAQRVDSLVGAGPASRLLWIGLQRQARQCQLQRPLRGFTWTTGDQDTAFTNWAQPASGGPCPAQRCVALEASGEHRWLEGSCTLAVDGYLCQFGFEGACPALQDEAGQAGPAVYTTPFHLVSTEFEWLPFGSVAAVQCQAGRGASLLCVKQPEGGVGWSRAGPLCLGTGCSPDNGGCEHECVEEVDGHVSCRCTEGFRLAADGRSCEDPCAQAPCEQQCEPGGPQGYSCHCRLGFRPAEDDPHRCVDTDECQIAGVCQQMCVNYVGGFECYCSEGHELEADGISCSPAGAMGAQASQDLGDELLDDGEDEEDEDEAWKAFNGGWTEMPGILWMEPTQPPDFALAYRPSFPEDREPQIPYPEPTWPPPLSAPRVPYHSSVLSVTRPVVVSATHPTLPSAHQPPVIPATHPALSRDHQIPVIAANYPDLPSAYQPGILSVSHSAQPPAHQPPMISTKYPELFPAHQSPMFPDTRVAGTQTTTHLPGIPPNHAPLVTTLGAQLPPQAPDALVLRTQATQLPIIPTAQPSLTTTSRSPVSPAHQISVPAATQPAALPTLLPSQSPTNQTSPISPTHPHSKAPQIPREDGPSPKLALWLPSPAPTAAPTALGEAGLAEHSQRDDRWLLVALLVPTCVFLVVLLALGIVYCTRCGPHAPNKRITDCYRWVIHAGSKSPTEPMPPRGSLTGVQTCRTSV

binding result [1] | IC50 [2] [µg/mL] | binding result [3] | Binder
binds |  |  | rabbit anti-mouse endosialin monoclonal antibody clone 8 (antibody, V domains shown, Rabbit IgG from a hybridoma, kappa light chain; rabbit constant regions are not; also called hybridoma clone 8 (ATCC PTA-9651)) VH: AQSVEESGGGLVKPEGSLTLSCKASGFSFSNNSYICWVRQAPGKGLEWIACIEFGRGNSHYASWAKGRFTITRSTSLNTVTLQLNSLTAADTATYFCARGSRGVGYGYGLWGPGTLVTISS VL: ELDMTQTPSPVSAAVGGTVTINCQASQSVYSNSRLSWYQQKPGQPPKQLIYSASTLASGVPSRFKGSGSGTHFTLTLSGVQCDDAATYYCQGEFACSSADCSAFGGGTELEILK
 | 21.4 |  | rabbit anti-human endosialin monoclonal antibody 1-3-1 (antibody, V domains shown) VH: AQSVEESGGDLVRPGASLTLTCSASGFTINRNYWICWVRQAPGRGPEWIACIYGGSSGTTYYTNWAKGRFTISKAASTTVTLQMTSLTVADTATYFCARVDNGGDWYFRLWGPGTLVTISS VL: ELDLTQTPASVEVAVGGTVTIKCQASQSISSYLAWYQQKPGQPPKLLIYRASTLASGVSSRFKGSGSGTEFTLTISGVQCDDAATYYCQQGVRVVDIDNSFGGGTELVVK
 | 69.5 | binds | rabbit anti-human endosialin monoclonal antibody 1-55-2 (antibody, V domains shown, Rabbit IgG from a hybridoma, kappa light chain; rabbit constant regions are not; also called hybridoma 1-55-2 (ATCC PTA-9652)) VH: QQQLMESGGDLVKPEGSLTLTCTASGFSFSSSYWGCWVRQAPGKGPEWIACIYGGSSGTTYYPNWAKGRFSISKTSSTTVTLQMASLTAADTATYFCARVTNGGDWDFKLWGPGTLVTVSS VL: ELVMTQTPASVEVAVGGTVTIKCQASQSINTYLAWYQQKPGQPPKLLIYRASTLASGVPSRFKGSGSGTEFTLTISDLECADAATYYCQQSVRVIDVDNTFGGGTEVVVK
 | 41.5 |  | rabbit anti-human endosialin monoclonal antibody 1-25-2 (antibody, V domains shown) VH: AQSLEESGGDLVKPEGSLTLTCTASGFSFSSSYWGCWVRQAPGKGPEWIACIYGGSSGTTYYPNWAKGRFSISKTSSTTVTLQMASLTAADTATYFCARVTNGGDWDFKLWGPGTLVTISS VL: ELVLTQTPASVEVAVGGTVTIKCQASQTINNYLTWYQQKPGQPPKLLIYRASTLASGVPSRFKGSGSGTEFTLTISDLECADAATYYCQQTVRVVDVDNSFGGGTEVVVK
